From patent US9657081B2, “Inhibiting peptides derived from triggering receptor expressed on myeloid cells-1 (TREM-1) TREM-like transcript 1 (TLT-1) for treatment of cardiovascular diseases” (INSERM (Institut National de la Sante et de la Recherche …, priority 2013, dated 2017) come the findings set out here.

In test [1] the target is T1, TREM-1 (Mus musculus, UniProt Q9JKE2).
T1 construct: endogenous in cells; host or cells: living mice (C57BL, Balb/c, ApoE-/-), in vivo
T1 sequence (Q9JKE2 21-230): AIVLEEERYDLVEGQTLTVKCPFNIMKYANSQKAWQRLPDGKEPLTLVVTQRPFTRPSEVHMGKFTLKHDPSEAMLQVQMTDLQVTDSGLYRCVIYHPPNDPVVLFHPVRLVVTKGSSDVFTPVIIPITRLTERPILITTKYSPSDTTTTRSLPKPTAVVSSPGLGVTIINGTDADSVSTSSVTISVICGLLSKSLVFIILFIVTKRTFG
The experiment in a line: Atherosclerosis in ApoE-/- mouse on fat diet. To be noted: apoE-/- mice, daily i.p. 100 μg/day, 4 weeks; vehicle 146736. It is filed as in vivo. Here is the method: 12-week old male ApoE−/− mice were put on a fat diet (lipids 15%, cholesterol 1.25%, no cholate) and were treated by daily intraperitoneal injection of peptides (100 μg/day) or PBS. After 4 weeks of fat diet, mice were sacrificed for analysis.
Atherosclerotic plaques were stained using Red Oil and quantified in the aortic sinus. Using immunofluorescent staining and immunohistochemistry, we analyzed plaque composition. Finally, we explored the effects of peptide's treatment on monocyte recruitment in the atherosclerotic plaques using the pulse staining technique developed by Potteaux et al. Briefly, monocytes were labelled in vivo by retro-orbital i.v. injection of 1 μm Fluoresbrite green fluorescent plain microspheres diluted 1:4 in sterile PBS [Potteaux et al, 2011]. Fluorescent beads count in the lesions reflects monocyte recruitment.

For test [2], the target named is T1, TREM-1. The experiment in a line: Mouse myocardial infarction, myocardial inflammatory reaction and protease activity in infarcted tissue. It is filed as in vivo. To be noted: myocardium after coronary artery ligation. The protocol:
For these experiments, myocardial lysate was obtained 24 hours after the induction of myocardial infarction from mice treated with TREM-1- and TLT-1-derived peptides or control LR12-scrambled peptide (‘controls’). Two areas were studied: a healthy area harvested distally from the infarcted zone in a control animal and an infarcted area. Data are representative of at least 5 different experiments. Results are mean±SD. p values are *p<0.001 [LR12 versus controls].
For these experiments, myocardial lysate was obtained 6, 24 and/or 96 hours after the induction of myocardial infarction from mice treated with TREM-1- and TLT-1-derived peptides or control LR12-scrambled peptide (‘controls’). Infarcted areas were analyzed for cytokine/chemokine production. Data are representative of at least 5 different experiments. p values are *p<0.001 [LR12 versus controls].
For these experiments, myocardial lysate was obtained 6, 24 and 96 hours after the induction of myocardial infarction from mice treated with TREM-1- and TLT-1-derived peptides or control LR12-scrambled peptide (‘controls’). Infarcted areas were analyzed. […]
Mice were monitored after surgery for mortality. Mice were randomized to receive or not peptides (daily ip injection for 5 days, 5 mg/kg) and monitored for survival. […]
MMP-9 enzymatic activity in tissue extracts was determined by SDS-PAGE gelatin zymography. […]

Consider “LQEEDAGEYGCM (listed as Homo sapiens) [TLT1-LR12]”, for which the “atherosclerotic lesion size in the aortic sinus (Red Oil staining)” value with TREM-1 [1] was 103318 μm^2. Also, the “myocardial infarction-induced gene activation (innate immunity / endothelial function genes)” value with TREM-1 [2] is given as “opposed to myocardial infarction-induced gene activation”.
